Measured values from article PMC3229523, “Identification of Lactoferricin B Intracellular Targets Using an Escherichia coli Proteome Chip” (PLoS ONE, 2011).
Ends that are not written are not given here. * marks the point of attachment. Biotin = O=C1N[C@H]2[C@H](CS[C@H]2CCCCC(=O)*)N1

What was measured:
Assay in all cases: peptide or protein array; E. coli proteome chip: purified His-tagged proteins printed in duplicate on Fullmoon slides, blocked with 1% BSA; 10 nM N-terminal biotinylated LfcinB with 1% BSA, room temperature, 1 h; detected with DyLight 649-labeled streptavidin, ratio to DyLight 549-labeled anti-His antibody; ProCAT normalisation, local cut-off; triplicate chips
Conditions in all cases: both partners purified
GlyQ = target: T1, GlyQ (E. coli K-12, UniProt P00960 1-303)
T1 construct: GlyQ, E. coli K-12
T1 sequence (looked up): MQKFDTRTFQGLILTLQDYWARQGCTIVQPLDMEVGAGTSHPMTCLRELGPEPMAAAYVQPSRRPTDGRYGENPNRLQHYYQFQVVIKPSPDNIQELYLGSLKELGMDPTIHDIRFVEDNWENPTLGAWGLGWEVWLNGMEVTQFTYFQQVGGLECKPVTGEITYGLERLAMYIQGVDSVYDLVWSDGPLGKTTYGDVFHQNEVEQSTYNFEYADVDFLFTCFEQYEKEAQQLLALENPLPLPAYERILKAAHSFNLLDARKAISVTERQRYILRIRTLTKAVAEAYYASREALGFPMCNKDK

YibB = target: T2, YibB (E. coli K-12, UniProt P25666 1-285)
T2 construct: YibB, E. coli K-12
T2 sequence (looked up): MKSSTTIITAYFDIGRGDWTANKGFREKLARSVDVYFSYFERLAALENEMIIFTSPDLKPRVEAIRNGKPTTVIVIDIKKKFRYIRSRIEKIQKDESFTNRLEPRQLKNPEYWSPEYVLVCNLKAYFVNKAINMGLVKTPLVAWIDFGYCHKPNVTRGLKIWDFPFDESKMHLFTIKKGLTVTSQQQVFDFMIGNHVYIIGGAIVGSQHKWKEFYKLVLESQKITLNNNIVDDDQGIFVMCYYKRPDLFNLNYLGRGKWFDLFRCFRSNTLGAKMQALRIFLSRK

YdaU = target: T3, YdaU (E. coli K-12, UniProt P76065 1-285)
T3 construct: YdaU, E. coli K-12
T3 sequence (looked up): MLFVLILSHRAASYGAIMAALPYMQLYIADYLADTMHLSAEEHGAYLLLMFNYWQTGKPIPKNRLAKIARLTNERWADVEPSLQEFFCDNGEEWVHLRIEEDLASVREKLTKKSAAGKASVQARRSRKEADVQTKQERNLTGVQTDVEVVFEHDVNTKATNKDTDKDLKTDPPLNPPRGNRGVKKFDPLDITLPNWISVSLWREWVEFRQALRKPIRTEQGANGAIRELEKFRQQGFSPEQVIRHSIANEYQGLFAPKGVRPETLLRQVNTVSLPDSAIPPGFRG

ArgH = target: T4, ArgH (E. coli K-12, UniProt P11447 1-457)
T4 construct: ArgH, E. coli K-12
T4 sequence (looked up): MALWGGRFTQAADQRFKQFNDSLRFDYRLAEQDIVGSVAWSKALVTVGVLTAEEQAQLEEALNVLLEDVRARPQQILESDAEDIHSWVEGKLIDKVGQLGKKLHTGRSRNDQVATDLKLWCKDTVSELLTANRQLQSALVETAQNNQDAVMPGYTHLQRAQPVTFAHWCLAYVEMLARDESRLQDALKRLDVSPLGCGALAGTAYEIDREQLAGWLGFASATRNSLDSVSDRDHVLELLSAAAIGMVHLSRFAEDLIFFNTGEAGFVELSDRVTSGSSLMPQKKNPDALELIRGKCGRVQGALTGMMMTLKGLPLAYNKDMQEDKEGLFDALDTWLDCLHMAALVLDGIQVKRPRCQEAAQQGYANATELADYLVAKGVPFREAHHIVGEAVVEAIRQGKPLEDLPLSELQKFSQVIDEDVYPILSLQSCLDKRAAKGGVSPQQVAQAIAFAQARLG

MdoG = target: T5, MdoG (E. coli K-12, UniProt P33136 23-511)
T5 construct: MdoG, E. coli K-12
T5 sequence (looked up): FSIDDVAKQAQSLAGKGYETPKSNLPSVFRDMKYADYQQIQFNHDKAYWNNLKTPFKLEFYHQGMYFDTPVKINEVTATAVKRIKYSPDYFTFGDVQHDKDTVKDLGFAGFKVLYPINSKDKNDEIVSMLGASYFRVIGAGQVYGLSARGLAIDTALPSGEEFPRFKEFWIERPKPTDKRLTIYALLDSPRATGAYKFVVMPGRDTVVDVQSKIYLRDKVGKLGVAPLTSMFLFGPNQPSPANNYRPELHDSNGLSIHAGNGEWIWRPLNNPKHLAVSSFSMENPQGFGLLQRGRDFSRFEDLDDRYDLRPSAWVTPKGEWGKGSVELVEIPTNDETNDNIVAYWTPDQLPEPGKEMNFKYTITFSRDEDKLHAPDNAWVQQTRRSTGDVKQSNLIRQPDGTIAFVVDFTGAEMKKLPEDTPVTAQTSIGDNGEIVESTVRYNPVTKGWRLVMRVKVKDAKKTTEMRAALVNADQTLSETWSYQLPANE

Measured: binding result

B1: N-terminal biotinylated Lactoferricin B (peptide, UniProt P24627 36-60, looked up)
peptide: Biotin-FKCRRWQWRMKKLGAPSITCVRRAF
modifications: ends and bridges not checked
notes: lactoferricin B (LfcinB), cationic antimicrobial peptide of 25 amino acids; also called biotinylated LfcinB; biotin-labeled LfcinB; source: bought: Kelowna Inc
binds: all assays above
